# In patent publication US20220401523A1:
# B1: mature human wild-type FGF21, FGF21(His29-Ser209), Q9NSA1 29-209 (ligand)
# chain: HPIPDSSPLLQFGGQVRQRYLYTDDAQQTEAHLEIREDGTVGGAADQSPESLLQLKALKPGVIQILGVKTSRFLCQRPDGALYGSLHFDPEACSFRELLLEDGYNVYQSEAHGLPLHLPGNKSPHRDPAPRGPARFLPLPGLPPAPPEPPGILAPQPPDVGSSDPLSMVGPSQGRSPSYAS
# Tests used:
# [1] = molecular target: human glucagon-like peptide-1 (GLP-1) receptor (human) (UniProt P43220); assay: cell-based or functional assay
# [2] = molecular target: human FGFR1c (FGF receptor 1c isoform) together with human beta-Klotho (KLB) (human), P11362; assay: cell-based or functional assay
# human FGFR1c (FGF receptor 1c isoform) together with human beta-Klotho (KLB) (human), P11362, sequence (P11362 22-822, chain 1 of 2): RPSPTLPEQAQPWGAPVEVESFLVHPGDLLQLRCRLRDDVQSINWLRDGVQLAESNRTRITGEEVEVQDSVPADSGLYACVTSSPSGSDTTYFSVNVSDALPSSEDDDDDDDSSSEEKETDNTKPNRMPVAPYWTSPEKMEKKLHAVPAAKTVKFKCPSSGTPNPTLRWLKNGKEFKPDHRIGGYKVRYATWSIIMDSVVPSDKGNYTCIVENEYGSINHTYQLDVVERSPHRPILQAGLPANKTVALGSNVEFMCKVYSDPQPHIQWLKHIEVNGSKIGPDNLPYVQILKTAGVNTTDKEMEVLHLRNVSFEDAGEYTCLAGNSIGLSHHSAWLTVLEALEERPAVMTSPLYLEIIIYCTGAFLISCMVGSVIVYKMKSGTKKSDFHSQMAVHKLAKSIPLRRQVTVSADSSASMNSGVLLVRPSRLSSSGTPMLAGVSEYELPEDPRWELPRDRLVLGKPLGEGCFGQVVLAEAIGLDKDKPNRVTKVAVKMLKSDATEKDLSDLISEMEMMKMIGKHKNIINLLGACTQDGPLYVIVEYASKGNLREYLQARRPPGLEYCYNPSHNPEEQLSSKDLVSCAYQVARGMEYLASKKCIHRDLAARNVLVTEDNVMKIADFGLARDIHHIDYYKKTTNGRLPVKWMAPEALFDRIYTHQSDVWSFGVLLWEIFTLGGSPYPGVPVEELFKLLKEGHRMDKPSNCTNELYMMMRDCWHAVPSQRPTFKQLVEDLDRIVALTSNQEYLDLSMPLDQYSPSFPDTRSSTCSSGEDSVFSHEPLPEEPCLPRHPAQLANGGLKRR
# human FGFR1c (FGF receptor 1c isoform) together with human beta-Klotho (KLB) (human), P11362, sequence (Q86Z14 whole entry, chain 2 of 2, further chain, canonical isoform): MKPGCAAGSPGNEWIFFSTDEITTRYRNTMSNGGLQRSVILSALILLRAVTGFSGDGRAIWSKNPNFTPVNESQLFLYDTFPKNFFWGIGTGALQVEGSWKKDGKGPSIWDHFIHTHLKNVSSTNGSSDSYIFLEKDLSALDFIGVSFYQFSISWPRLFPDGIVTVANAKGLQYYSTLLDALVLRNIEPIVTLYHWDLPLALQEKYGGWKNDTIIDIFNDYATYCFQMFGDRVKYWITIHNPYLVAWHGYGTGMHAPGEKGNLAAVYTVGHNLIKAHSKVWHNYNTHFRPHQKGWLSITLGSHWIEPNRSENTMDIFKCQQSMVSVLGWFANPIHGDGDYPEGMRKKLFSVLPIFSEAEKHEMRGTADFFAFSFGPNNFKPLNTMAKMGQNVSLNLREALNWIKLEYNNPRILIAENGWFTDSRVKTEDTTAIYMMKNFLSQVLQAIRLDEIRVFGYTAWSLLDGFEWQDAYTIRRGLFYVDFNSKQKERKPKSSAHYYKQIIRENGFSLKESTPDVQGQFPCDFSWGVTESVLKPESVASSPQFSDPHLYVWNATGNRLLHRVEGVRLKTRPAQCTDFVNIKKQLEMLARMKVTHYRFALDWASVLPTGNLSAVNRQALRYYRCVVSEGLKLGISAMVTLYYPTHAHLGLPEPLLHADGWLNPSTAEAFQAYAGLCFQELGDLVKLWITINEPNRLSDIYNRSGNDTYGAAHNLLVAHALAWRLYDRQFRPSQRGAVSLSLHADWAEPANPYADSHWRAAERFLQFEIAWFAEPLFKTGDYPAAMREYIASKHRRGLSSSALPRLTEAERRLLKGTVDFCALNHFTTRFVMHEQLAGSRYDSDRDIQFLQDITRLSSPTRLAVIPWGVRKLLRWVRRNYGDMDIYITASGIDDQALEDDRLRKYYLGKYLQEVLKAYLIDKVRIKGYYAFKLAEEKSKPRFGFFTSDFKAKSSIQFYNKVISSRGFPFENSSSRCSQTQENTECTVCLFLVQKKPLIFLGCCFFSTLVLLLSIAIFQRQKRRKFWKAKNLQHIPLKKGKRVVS
# UniProt P43220, sequence (P43220 24-463): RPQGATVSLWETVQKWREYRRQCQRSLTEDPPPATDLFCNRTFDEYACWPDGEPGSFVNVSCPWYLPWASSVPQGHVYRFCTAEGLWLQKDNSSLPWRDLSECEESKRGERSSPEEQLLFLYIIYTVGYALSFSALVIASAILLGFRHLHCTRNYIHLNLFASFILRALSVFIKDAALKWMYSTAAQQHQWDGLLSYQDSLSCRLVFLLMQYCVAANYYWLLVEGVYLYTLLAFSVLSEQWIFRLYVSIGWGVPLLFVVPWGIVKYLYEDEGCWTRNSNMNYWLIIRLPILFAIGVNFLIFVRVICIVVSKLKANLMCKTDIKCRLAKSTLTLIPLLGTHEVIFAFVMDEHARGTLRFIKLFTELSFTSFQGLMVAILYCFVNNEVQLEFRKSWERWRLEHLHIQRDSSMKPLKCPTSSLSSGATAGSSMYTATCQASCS
Molecule,EC50 of cAMP response (HTRF) [1],Ratio GLP-1R agonistic activity: native GLP-1(7-36)/tested GLP-1R agonist [1],"pERK ICW EC50 (downstream activation of the MAP kinase ERK1/2, In-Cell Western) [2]","pFGFR ICW EC50 (FGF21 receptor autophosphorylation, In-Cell Western) [2]"
"GLP1(7-36) A8G, V16L, S18I, Y19Q, E21D, G22E, Q23E, A25V, K26R, E27L, A30E, V33E, K34A, G35T, R36G, (Fc fusion)",0.675 nM,877 fold,–,–
"GLP1(7-36) A8G, V16L, S18I, Y19Q, E21D, G22E, Q23E, A25V, K26R, E27L, A30E, V33L, K34A, G35T, R36G, (Fc fusion)",0.0605 nM,78.6 fold,–,–
"GLP1(7-36) A8G, V16L, S18K, Y19Q, E21D, G22E, Q23E, A25V, K26Q, E27L, A30E, V33L, K34A, G35T, R36G, (Fc fusion)",0.173 nM,225 fold,–,–
"GLP1(7-36) A8G, V16L, S18K, Y19Q, G22E, Q23E, A25V, K26Q, E27L, A30E, V33E, K34A, G35T, R36G, insPSS (Fc fusion)",0.134 nM,174 fold,–,–
B1,–,–,0.18 nmol/L,4.8 nmol/L
